Laboratory results published in patent US20220177587A1, “METHODS AND USES OF VARIANT CD80 FUSION PROTEINS AND RELATED CONSTRUCTS” (Alpine Immune Sciences, Inc., priority 2018, published 2022).

Assays:
CD28 (human) [1] = target: CD28 (human) (UniProt P10747); experiment: flow cytometry, Jurkat cells (CD28)
human PD-L1 (human) [2] = target: human PD-L1 (human) (UniProt Q9NZQ7); experiment: flow cytometry, CHO cells stably expressing PD-L1
CD28 (human) [3] = target: CD28 (human) (UniProt P10747); experiment: flow cytometry, Jurkat/IL2 reporter cells (CD28)
human PD-L1 (human) [4] = target: human PD-L1 (human) (UniProt Q9NZQ7); experiment: flow cytometry, CHO cells expressing huPD-L1
human CTLA-4 (human) [5] = target: human CTLA-4 (human) (UniProt P16410); experiment: flow cytometry, CHO cells expressing huCTLA4
Chain of human CTLA-4 (human) (P16410 36-223): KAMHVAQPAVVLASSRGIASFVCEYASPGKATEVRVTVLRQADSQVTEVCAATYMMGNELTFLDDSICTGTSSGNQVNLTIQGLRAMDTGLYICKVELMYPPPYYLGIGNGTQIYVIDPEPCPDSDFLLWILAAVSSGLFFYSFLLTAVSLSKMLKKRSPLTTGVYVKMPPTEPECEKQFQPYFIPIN

CD28 (human) [6] = target: CD28 (human) (UniProt P10747); experiment: flow cytometry, Jurkat/IL2 reporter cells (endogenous CD28)
human PD-L1 (human) [7] = target: human PD-L1 (human) (UniProt Q9NZQ7); experiment: flow cytometry, CHO cells expressing huPD-L1; MFI ratio to WT CD80 ECD-Fc (R&D)
CD28 (human) [8] = target: CD28 (human) (UniProt P10747); experiment: flow cytometry, Jurkat/IL2 reporter cells (endogenous CD28); MFI ratio to WT CD80 ECD-Fc (R&D)
human PD-L1 (human) [9] = target: human PD-L1 (human) (UniProt Q9NZQ7); experiment: flow cytometry; binding to PD-L1 cells against binding of the same variant to CD28 cells
human CTLA-4 (human) [10] = target: human CTLA-4 (human) (UniProt P16410); experiment: flow cytometry, CHO cells expressing huCTLA4; MFI ratio to WT CD80 ECD-Fc (R&D)

Chain of human PD-L1 (human) (Q9NZQ7 19-290): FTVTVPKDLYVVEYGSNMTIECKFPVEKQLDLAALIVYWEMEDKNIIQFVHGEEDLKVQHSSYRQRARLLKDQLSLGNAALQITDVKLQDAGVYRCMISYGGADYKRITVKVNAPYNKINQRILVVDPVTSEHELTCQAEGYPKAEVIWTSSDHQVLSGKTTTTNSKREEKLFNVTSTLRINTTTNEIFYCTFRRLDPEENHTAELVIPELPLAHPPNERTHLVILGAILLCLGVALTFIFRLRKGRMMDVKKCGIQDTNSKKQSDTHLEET

Binder	MFI at 33.3 nM (CD28 (human) [3])	MFI at 33.3 nM (human PD-L1 (human) [4])	MFI at 33.3 nM (human CTLA-4 (human) [5])	other results
CD80 ECD (SEQ ID NO:2)-Fc (inert) with GSG4S linker (Fc fusion) VIHVTKEVKEVATLSCGHNVSVEELAQTRIYWQKEKKMVLTMMSGDMNIWPEYKNRTIFDITNNLSIVILALRPSDEGTYECVVLKYEKDAFKREHLAEVTLSVKADFPTPSISDFEIPTSNIRRIICSTSGGFPEPHLSWLENGEELNAINTTVSQDPETELYAVSSKLDFNMTTNHSFMCLIKYGHLRVNQTFNWNTTKQEHFPDNGSGGGGS	–	–	–	MFI at 33.3 nM (CD28 (human) [1]): 37 MFI; MFI at 33.3 nM (human PD-L1 (human) [2]): 35 MFI
variant CD80 IgV-Fc E35D/A71G (Fc fusion) VIHVTKEVKEVATLSCGHNVSVEELAQTRIYWQKDKKMVLTMMSGDMNIWPEYKNRTIFDITNNLSIVILGLRPSDEGTYECVVLKYEKDAFKREHLAEVTLSVKAD	–	34100 MFI	184000 MFI	–
variant CD80 IgV-Fc E35D/K37E/M47V/N48D/L85Q/D90N (Fc fusion) VIHVTKEVKEVATLSCGHNVSVEELAQTRIYWQKDKEMVLTMMSGDVDIWPEYKNRTIFDITNNLSIVILALRPSDEGTYECVVQKYEKNAFKREHLAEVTLSVKAD	–	26500 MFI	–	–
variant CD80 IgV-Fc E35D/D46E/M47V/A71D (Fc fusion) VIHVTKEVKEVATLSCGHNVSVEELAQTRIYWQKDKKMVLTMMSGEVNIWPEYKNRTIFDITNNLSIVILDLRPSDEGTYECVVLKYEKDAFKREHLAEVTLSVKAD	–	549 MFI	–	–
variant CD80 IgV-Fc E35D/D46E/M47V/A71D/D90G (Fc fusion) VIHVTKEVKEVATLSCGHNVSVEELAQTRIYWQKDKKMVLTMMSGEVNIWPEYKNRTIFDITNNLSIVILDLRPSDEGTYECVVLKYEKGAFKREHLAEVTLSVKAD	–	32400 MFI	275000 MFI	–
variant CD80 IgV-Fc E35D/D46V/M47L/V68M/L85Q/E88D (Fc fusion) VIHVTKEVKEVATLSCGHNVSVEELAQTRIYWQKDKKMVLTMMSGVLNIWPEYKNRTIFDITNNLSIMILALRPSDEGTYECVVQKYDKDAFKREHLAEVTLSVKAD	–	137000 MFI	–	–
variant CD80 IgV-Fc E35D/M47L/A71G/L85Q (Fc fusion) VIHVTKEVKEVATLSCGHNVSVEELAQTRIYWQKDKKMVLTMMSGDLNIWPEYKNRTIFDITNNLSIVILGLRPSDEGTYECVVQKYEKDAFKREHLAEVTLSVKAD	1440 MFI	–	–	–
variant CD80 IgV-Fc A26E/Q33L/E35D/M47L (Fc fusion) VIHVTKEVKEVATLSCGHNVSVEELEQTRIYWLKDKKMVLTMMSGDLNIWPEYKNRTIFDITNNLSIVILALRPSDEGTYECVVLKYEKDAFKREHLAEVTLSVKAD	–	60900 MFI	1320 MFI	MFI at 33.3 nM (CD28 (human) [6]): 271 MFI; Fold change to WT (human PD-L1 (human) [7]): 7.67 fold; Fold change to WT (CD28 (human) [8]): 0.04 fold; Ratio of PDL1:CD28 (human PD-L1 (human) [9]): 225; Fold change to WT CD80 (human CTLA-4 (human) [10]): 0.01 fold
variant CD80 IgV-Fc E35D/M47V/N48T/L85Q (Fc fusion) VIHVTKEVKEVATLSCGHNVSVEELAQTRIYWQKDKKMVLTMMSGDVTIWPEYKNRTIFDITNNLSIVILALRPSDEGTYECVVQKYEKDAFKREHLAEVTLSVKAD	692 MFI	35500 MFI	–	–
variant CD80 IgV-Fc E35D/M47V/A71G (Fc fusion) VIHVTKEVKEVATLSCGHNVSVEELAQTRIYWQKDKKMVLTMMSGDVNIWPEYKNRTIFDITNNLSIVILGLRPSDEGTYECVVLKYEKDAFKREHLAEVTLSVKAD	6360 MFI	36200 MFI	–	–
variant CD80 IgV-Fc A26E/Q33L/E35D/M47L/L85Q (Fc fusion) VIHVTKEVKEVATLSCGHNVSVEELEQTRIYWLKDKKMVLTMMSGDLNIWPEYKNRTIFDITNNLSIVILALRPSDEGTYECVVQKYEKDAFKREHLAEVTLSVKAD	–	62700 MFI	1170 MFI	MFI at 33.3 nM (CD28 (human) [6]): 274 MFI; Fold change to WT (human PD-L1 (human) [7]): 7.89 fold; Fold change to WT (CD28 (human) [8]): 0.04 fold; Ratio of PDL1:CD28 (human PD-L1 (human) [9]): 229; Fold change to WT CD80 (human CTLA-4 (human) [10]): 0.01 fold
variant CD80 IgV-Fc A26E/Q33R/E35D/M47L/L85Q/K86E (Fc fusion) VIHVTKEVKEVATLSCGHNVSVEELEQTRIYWRKDKKMVLTMMSGDLNIWPEYKNRTIFDITNNLSIVILALRPSDEGTYECVVQEYEKDAFKREHLAEVTLSVKAD	–	76000 MFI	1280 MFI	MFI at 33.3 nM (CD28 (human) [6]): 275 MFI; Fold change to WT (human PD-L1 (human) [7]): 9.56 fold; Fold change to WT (CD28 (human) [8]): 0.04 fold; Ratio of PDL1:CD28 (human PD-L1 (human) [9]): 276; Fold change to WT CD80 (human CTLA-4 (human) [10]): 0.01 fold
variant CD80 IgV-Fc A26E/Q33R/E35D/M47L/L85Q (Fc fusion) VIHVTKEVKEVATLSCGHNVSVEELEQTRIYWRKDKKMVLTMMSGDLNIWPEYKNRTIFDITNNLSIVILALRPSDEGTYECVVQKYEKDAFKREHLAEVTLSVKAD	–	81500 MFI	1280 MFI	MFI at 33.3 nM (CD28 (human) [6]): 264 MFI; Fold change to WT (human PD-L1 (human) [7]): 10.3 fold; Fold change to WT (CD28 (human) [8]): 0.03 fold; Ratio of PDL1:CD28 (human PD-L1 (human) [9]): 309; Fold change to WT CD80 (human CTLA-4 (human) [10]): 0.01 fold
variant CD80 IgV-Fc (inert) H18Y/A26P/E35D/M47V/V68M/A71G (Fc fusion) VIHVTKEVKEVATLSCGYNVSVEELPQTRIYWQKDKKMVLTMMSGDVNIWPEYKNRTIFDITNNLSIMILGLRPSDEGTYECVVLKYEKDAFKREHLAEVTLSVKAD	–	–	–	MFI at 33.3 nM (CD28 (human) [1]): 6910 MFI; MFI at 33.3 nM (human PD-L1 (human) [2]): 51500 MFI
variant CD80 IgV-Fc E35D/M47V/A71G/E88D (Fc fusion) VIHVTKEVKEVATLSCGHNVSVEELAQTRIYWQKDKKMVLTMMSGDVNIWPEYKNRTIFDITNNLSIVILGLRPSDEGTYECVVLKYDKDAFKREHLAEVTLSVKAD	6240 MFI	37100 MFI	212000 MFI	–

The next lines start with results.

MFI at 33.3 nM (CD28 (human) [3])	MFI at 33.3 nM (human PD-L1 (human) [4])	MFI at 33.3 nM (human CTLA-4 (human) [5])	Binder	other results
7270 MFI	43800 MFI	152000 MFI	variant CD80 IgV-Fc V22L/Q27H/E35D/M47I/A71G (Fc fusion) VIHVTKEVKEVATLSCGHNVSLEELAHTRIYWQKDKKMVLTMMSGDINIWPEYKNRTIFDITNNLSIVILGLRPSDEGTYECVVLKYEKDAFKREHLAEVTLSVKAD	–
–	76600 MFI	2090 MFI	variant CD80 IgV-Fc H18Y/A26E/Q33L/E35D/M47L/L85Q (Fc fusion) VIHVTKEVKEVATLSCGYNVSVEELEQTRIYWLKDKKMVLTMMSGDLNIWPEYKNRTIFDITNNLSIVILALRPSDEGTYECVVQKYEKDAFKREHLAEVTLSVKAD	MFI at 33.3 nM (CD28 (human) [6]): 272 MFI; Fold change to WT (human PD-L1 (human) [7]): 9.64 fold; Fold change to WT (CD28 (human) [8]): 0.04 fold; Ratio of PDL1:CD28 (human PD-L1 (human) [9]): 282; Fold change to WT CD80 (human CTLA-4 (human) [10]): 0.01 fold
542 MFI	–	256000 MFI	variant CD80 IgV-Fc V22D/E35D/M47L/L85Q (Fc fusion) VIHVTKEVKEVATLSCGHNVSDEELAQTRIYWQKDKKMVLTMMSGDLNIWPEYKNRTIFDITNNLSIVILALRPSDEGTYECVVQKYEKDAFKREHLAEVTLSVKAD	–
–	–	208000 MFI	variant CD80 IgV-Fc E35D/T41S/M43I/A71G/D90G (Fc fusion) VIHVTKEVKEVATLSCGHNVSVEELAQTRIYWQKDKKMVLSMISGDMNIWPEYKNRTIFDITNNLSIVILGLRPSDEGTYECVVLKYEKGAFKREHLAEVTLSVKAD	–
–	1350 MFI	437000 MFI	variant CD80 IgV-Fc V22A/E35D/V68E/A71D (Fc fusion) VIHVTKEVKEVATLSCGHNVSAEELAQTRIYWQKDKKMVLTMMSGDMNIWPEYKNRTIFDITNNLSIEILDLRPSDEGTYECVVLKYEKDAFKREHLAEVTLSVKAD	MFI at 33.3 nM (CD28 (human) [6]): 14000 MFI
2840 MFI	44400 MFI	–	variant CD80 IgV-Fc E35D/T41S/M43I/M47V/A71G (Fc fusion) VIHVTKEVKEVATLSCGHNVSVEELAQTRIYWQKDKKMVLSMISGDVNIWPEYKNRTIFDITNNLSIVILGLRPSDEGTYECVVLKYEKDAFKREHLAEVTLSVKAD	–
527 MFI	–	–	variant CD80 IgV-Fc V22D/E35D/M47L/L70M/L97Q (Fc fusion) VIHVTKEVKEVATLSCGHNVSDEELAQTRIYWQKDKKMVLTMMSGDLNIWPEYKNRTIFDITNNLSIVIMALRPSDEGTYECVVLKYEKDAFKREHQAEVTLSVKAD	–
–	–	261000 MFI	variant CD80 IgV-Fc H18Y/E35D/N48K (Fc fusion) VIHVTKEVKEVATLSCGYNVSVEELAQTRIYWQKDKKMVLTMMSGDMKIWPEYKNRTIFDITNNLSIVILALRPSDEGTYECVVLKYEKDAFKREHLAEVTLSVKAD	–
–	39100 MFI	–	variant CD80 IgV-Fc Q33K/E35D/M47V/K89E/K93R (Fc fusion) VIHVTKEVKEVATLSCGHNVSVEELAQTRIYWKKDKKMVLTMMSGDVNIWPEYKNRTIFDITNNLSIVILALRPSDEGTYECVVLKYEEDAFRREHLAEVTLSVKAD	MFI at 33.3 nM (CD28 (human) [6]): 276 MFI
3540 MFI	52400 MFI	231000 MFI	variant CD80 IgV-Fc H18Y/A26E/E35D/M47L/L85Q/D90G (Fc fusion) VIHVTKEVKEVATLSCGYNVSVEELEQTRIYWQKDKKMVLTMMSGDLNIWPEYKNRTIFDITNNLSIVILALRPSDEGTYECVVQKYEKGAFKREHLAEVTLSVKAD	–
3100 MFI	–	209000 MFI	variant CD80 IgV-Fc E35D/T41S/M43I/M47L/A71G (Fc fusion) VIHVTKEVKEVATLSCGHNVSVEELAQTRIYWQKDKKMVLSMISGDLNIWPEYKNRTIFDITNNLSIVILGLRPSDEGTYECVVLKYEKDAFKREHLAEVTLSVKAD	–
88.1 MFI	5800 MFI	–	variant CD80 IgV-Fc M47L/L85Q (Fc fusion) VIHVTKEVKEVATLSCGHNVSVEELAQTRIYWQKEKKMVLTMMSGDLNIWPEYKNRTIFDITNNLSIVILALRPSDEGTYECVVQKYEKDAFKREHLAEVTLSVKAD	–
